Experiments:
[1] = target: T1, BRCA2MBD;MEILB2 (22-338);BRME1MBD (Mus musculus;Mus musculus;Mus musculus) (UniProt P97929+Q9D4G2+Q6DIA7); assay: EMSA; conditions: EMSA: 20 mM HEPES pH 7.5, 325 mM KCl, 60 min room temperature; 0.4% agarose, 0.5x TBE pH 8.0, 4 C; 50 uM DNA per bp/base (qualitative). Pulldown: 20 mM HEPES …
T1 sequence 1: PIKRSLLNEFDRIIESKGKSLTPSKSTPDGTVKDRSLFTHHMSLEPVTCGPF
T1 sequence 2: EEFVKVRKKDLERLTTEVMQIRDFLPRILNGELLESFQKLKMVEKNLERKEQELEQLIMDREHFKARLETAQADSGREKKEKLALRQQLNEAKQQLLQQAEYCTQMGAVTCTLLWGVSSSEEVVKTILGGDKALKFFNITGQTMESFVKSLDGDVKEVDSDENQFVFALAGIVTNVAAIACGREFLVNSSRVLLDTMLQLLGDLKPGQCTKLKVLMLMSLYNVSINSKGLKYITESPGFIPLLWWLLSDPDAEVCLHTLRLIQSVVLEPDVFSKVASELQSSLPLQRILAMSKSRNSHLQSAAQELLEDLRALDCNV
T1 sequence 3: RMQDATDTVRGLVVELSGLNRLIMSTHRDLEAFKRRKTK

[2] = target: T2, BRCA2MBD;MEILB2 K26E;BRME1MBD K26E (Mus musculus;Mus musculus;Mus musculus) (UniProt P97929+Q9D4G2+Q6DIA7); assay: EMSA; conditions: EMSA: 20 mM HEPES pH 7.5, 325 mM KCl, 60 min room temperature; 0.4% agarose, 0.5x TBE pH 8.0, 4 C; 50 uM DNA per bp/base (qualitative). Pulldown: 20 mM HEPES …
T2 sequence 1: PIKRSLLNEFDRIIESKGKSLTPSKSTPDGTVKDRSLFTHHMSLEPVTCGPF
T2 sequence 2: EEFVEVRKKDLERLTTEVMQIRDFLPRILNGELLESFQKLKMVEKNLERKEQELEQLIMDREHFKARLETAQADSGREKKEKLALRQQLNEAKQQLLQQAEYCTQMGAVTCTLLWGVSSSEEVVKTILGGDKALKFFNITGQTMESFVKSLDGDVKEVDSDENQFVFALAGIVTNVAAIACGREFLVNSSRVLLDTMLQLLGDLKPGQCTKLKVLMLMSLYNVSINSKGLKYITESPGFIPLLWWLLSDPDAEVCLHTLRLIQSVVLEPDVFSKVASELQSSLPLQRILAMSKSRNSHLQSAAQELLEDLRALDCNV
T2 sequence 3: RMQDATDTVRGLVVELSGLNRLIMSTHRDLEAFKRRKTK

[3] = target: T3, MEILB2 (22-338);BRME1MBD (Mus musculus;Mus musculus, UniProt Q9D4G2;Q6DIA7 22-338;540-578, |); assay: EMSA; apparent Kd, Hill n = 2; 2:2 complex concentration; 100 nM DNA; EMSA: 20 mM HEPES pH 7.5, 325 mM KCl, 60 min room temperature; 0.4% agarose, 0.5x TBE pH 8.0, 4 C; 50 uM DNA per bp/base (qualitative). Pulldown: 20 mM HEPES pH 7.5, 150 mM KCl, 10% glycerol, room temperature; conditions: protein: recombinant;recombinant, tags: His6-MBP tag, TEV-cleaved;His6 tag, chain copies: 2;2, label: 5'-FAM
T3 sequence 1: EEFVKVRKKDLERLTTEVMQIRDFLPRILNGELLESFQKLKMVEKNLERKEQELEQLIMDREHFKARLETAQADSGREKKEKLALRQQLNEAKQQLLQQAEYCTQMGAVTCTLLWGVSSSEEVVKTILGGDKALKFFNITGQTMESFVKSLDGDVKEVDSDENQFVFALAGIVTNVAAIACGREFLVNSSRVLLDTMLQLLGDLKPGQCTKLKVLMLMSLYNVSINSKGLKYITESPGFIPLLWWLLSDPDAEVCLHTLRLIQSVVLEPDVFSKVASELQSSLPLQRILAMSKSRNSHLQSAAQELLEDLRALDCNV
T3 sequence 2: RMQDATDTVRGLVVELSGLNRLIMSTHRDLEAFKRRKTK

[4] = target: T4, BRCA2MBD;MEILB2 (22-338);BRME1MBD (Mus musculus;Mus musculus;Mus musculus, UniProt P97929;Q9D4G2;Q6DIA7 2232-2283;22-338;540-578, ||); assay: EMSA; EMSA: 20 mM HEPES pH 7.5, 325 mM KCl, 60 min room temperature; 0.4% agarose, 0.5x TBE pH 8.0, 4 C; 50 uM DNA per bp/base (qualitative). Pulldown: 20 mM HEPES pH 7.5, 150 mM KCl, 10% glycerol, room temperature; conditions: protein: recombinant;recombinant;recombinant, tags: MBP tag, TEV-cleaved;His6-MBP tag
T4 sequence 1: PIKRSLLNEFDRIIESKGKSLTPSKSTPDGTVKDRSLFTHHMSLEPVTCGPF
T4 sequence 2: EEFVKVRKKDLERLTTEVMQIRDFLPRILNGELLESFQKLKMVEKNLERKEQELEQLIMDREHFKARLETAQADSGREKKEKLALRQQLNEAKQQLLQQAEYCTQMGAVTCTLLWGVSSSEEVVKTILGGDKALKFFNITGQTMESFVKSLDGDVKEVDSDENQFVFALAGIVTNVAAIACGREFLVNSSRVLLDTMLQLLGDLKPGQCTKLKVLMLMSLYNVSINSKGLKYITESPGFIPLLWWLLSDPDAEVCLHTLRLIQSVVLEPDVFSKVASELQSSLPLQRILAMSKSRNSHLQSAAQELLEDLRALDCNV
T4 sequence 3: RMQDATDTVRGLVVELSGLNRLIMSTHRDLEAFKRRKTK

[5] = target: T4, BRCA2MBD;MEILB2 (22-338);BRME1MBD; assay: EMSA; apparent Kd, Hill n = 4; 2:4:4 complex; 50 nM DNA; EMSA: 20 mM HEPES pH 7.5, 325 mM KCl, 60 min room temperature; 0.4% agarose, 0.5x TBE pH 8.0, 4 C; 50 uM DNA per bp/base (qualitative). Pulldown: 20 mM HEPES pH 7.5, 150 mM KCl, 10% glycerol, room temperature; conditions: protein: recombinant;recombinant;recombinant, tags: MBP tag, TEV-cleaved;His6-MBP tag, chain copies: 2;4;4, label: FAM, blunt
[6] = target: T3, MEILB2 (22-338);BRME1MBD; assay: EMSA; apparent Kd, Hill n = 3; 2:2 complex concentration; 50 nM DNA; EMSA: 20 mM HEPES pH 7.5, 325 mM KCl, 60 min room temperature; 0.4% agarose, 0.5x TBE pH 8.0, 4 C; 50 uM DNA per bp/base (qualitative). Pulldown: 20 mM HEPES pH 7.5, 150 mM KCl, 10% glycerol, room temperature; conditions: protein: recombinant;recombinant, tags: His6-MBP tag, TEV-cleaved;His6 tag, chain copies: 2;2, label: FAM, blunt
[7] = target: T5, BRCA2MBD;MEILB2 K26E;BRME1MBD (Mus musculus;Mus musculus;Mus musculus, UniProt P97929;Q9D4G2;Q6DIA7 2232-2283;22-338;540-578, |K26E|); assay: EMSA; EMSA: 20 mM HEPES pH 7.5, 325 mM KCl, 60 min room temperature; 0.4% agarose, 0.5x TBE pH 8.0, 4 C; 50 uM DNA per bp/base (qualitative). Pulldown: 20 mM HEPES pH 7.5, 150 mM KCl, 10% glycerol, room temperature; conditions: protein: recombinant;recombinant;recombinant, tags: MBP tag, TEV-cleaved;His6-MBP tag, chain copies: 2;4;4, blunt
T5 sequence 1: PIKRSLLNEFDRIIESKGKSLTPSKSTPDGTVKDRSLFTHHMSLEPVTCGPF
T5 sequence 2: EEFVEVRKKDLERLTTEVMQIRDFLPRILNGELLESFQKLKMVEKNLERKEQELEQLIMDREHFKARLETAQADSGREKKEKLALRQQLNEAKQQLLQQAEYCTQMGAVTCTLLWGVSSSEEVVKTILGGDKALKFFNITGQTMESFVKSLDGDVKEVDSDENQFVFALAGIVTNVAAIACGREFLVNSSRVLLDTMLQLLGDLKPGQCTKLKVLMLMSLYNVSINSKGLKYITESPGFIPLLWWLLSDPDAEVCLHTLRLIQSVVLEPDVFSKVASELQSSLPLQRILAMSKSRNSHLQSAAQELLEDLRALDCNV
T5 sequence 3: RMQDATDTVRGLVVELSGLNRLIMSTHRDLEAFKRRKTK

[8] = target: T6, MEILB2 (22-338);BRME1MBD R540E R549E (Mus musculus;Mus musculus, UniProt Q9D4G2;Q6DIA7 22-338;540-578, |R540E;R549E); assay: pull-down; 150 mM KCl; EMSA: 20 mM HEPES pH 7.5, 325 mM KCl, 60 min room temperature; 0.4% agarose, 0.5x TBE pH 8.0, 4 C; 50 uM DNA per bp/base (qualitative). Pulldown: 20 mM HEPES pH 7.5, 150 mM KCl, 10% glycerol, room temperature; conditions: protein: recombinant;recombinant, tags: His6-MBP tag, TEV-cleaved;His6 tag, chain copies: 2;2, blunt
T6 sequence 1: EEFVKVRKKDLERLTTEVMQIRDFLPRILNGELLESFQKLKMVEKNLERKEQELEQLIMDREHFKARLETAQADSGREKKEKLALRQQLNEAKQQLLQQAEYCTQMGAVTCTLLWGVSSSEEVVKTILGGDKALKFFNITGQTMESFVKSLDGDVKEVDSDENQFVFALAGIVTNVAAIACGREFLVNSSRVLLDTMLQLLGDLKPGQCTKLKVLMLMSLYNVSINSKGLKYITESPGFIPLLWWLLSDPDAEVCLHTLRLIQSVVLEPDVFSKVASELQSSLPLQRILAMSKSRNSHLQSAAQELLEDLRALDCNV
T6 sequence 2: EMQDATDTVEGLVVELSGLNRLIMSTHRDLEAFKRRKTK

[9] = target: T3, MEILB2 (22-338);BRME1MBD; assay: EMSA; EMSA: 20 mM HEPES pH 7.5, 325 mM KCl, 60 min room temperature; 0.4% agarose, 0.5x TBE pH 8.0, 4 C; 50 uM DNA per bp/base (qualitative). Pulldown: 20 mM HEPES pH 7.5, 150 mM KCl, 10% glycerol, room temperature; conditions: protein: recombinant;recombinant, tags: His6-MBP tag, TEV-cleaved;His6 tag, chain copies: 2;2, hairpin with 3' poly(dT) overhang

ATGGAATCTAAAGAAGAATTTGTTAAAGTCAGAAAGAAGGACCTGGAACGGCTGACGACGGAAGTGATGCAAATACGGGACTTCTTACCCAGAATACTAAATGGGGAGTTACTGGAAAGTTTCCAGAAATTAAAGATGGTAGAAAAAAACCTGGAAAGAAAAGAACAAGAATTAGAGCAACTGATAATGGACCGTGAACACTTCAAAGCCCGGCTAGAAACTGCACAGGCAGACAGTGGGAGGGAGAAGAAGGAGAAGTTGGCTCTTCGACAGCAGCTGAATGAGGCAAAACAGCAGCTC (double strand) [FAM-300 bp dsDNA]
Kd [1]: 310 nM | Kd [2]: 300 nM

B1: 75 base FAM-poly(dT) (ssDNA)
DNA: TTTTTTTTTTTTTTTTTTTTTTTTTTTTTTTTTTTTTTTTTTTTTTTTTTTTTTTTTTTTTTTTTTTTTTTTTTT
Kd [3]: 870 ± 70 nM | binding result ([4]; chain copies: 2;4;4, label: 5'-FAM): binds

B2: FAM-75 bp dsDNA (dsDNA)
DNA 1: ATGGAATCTAAAGAAGAATTTGTTAAAGTCAGAAAGAAGGACCTGGAACGGCTGACGACGGAAGTGATGCAAATA
DNA 2: TATTTGCATCACTTCCGTCGTCAGCCGTTCCAGGTCCTTCTTTCTGACTTTAACAAATTCTTCTTTAGATTCCAT
Kd [5]: 400 ± 40 nM | Kd [6]: 520 ± 60 nM

B3: 75 bp dsDNA (dsDNA)
DNA 1: ATGGAATCTAAAGAAGAATTTGTTAAAGTCAGAAAGAAGGACCTGGAACGGCTGACGACGGAAGTGATGCAAATA
DNA 2: TATTTGCATCACTTCCGTCGTCAGCCGTTCCAGGTCCTTCTTTCTGACTTTAACAAATTCTTCTTTAGATTCCAT
binding result [7]: no binding

B4: biotin-75 bp dsDNA (dsDNA)
DNA 1: ATGGAATCTAAAGAAGAATTTGTTAAAGTCAGAAAGAAGGACCTGGAACGGCTGACGACGGAAGTGATGCAAATA
DNA 2: TATTTGCATCACTTCCGTCGTCAGCCGTTCCAGGTCCTTCTTTCTGACTTTAACAAATTCTTCTTTAGATTCCAT
binding result [8]: no binding

B5: ssDNA-dsDNA junction (5' hairpin-poly(dT) 3') (structured_DNA)
DNA: CCGGCCCGCGGTGTCCGCGGGCCGGTTTTTTTTTTTTTTTTTTTTTTTTTTTTTTTTTTTTTTTTTTTTTTTTTT
binding result [9]: binds | binding result ([4]; chain copies: 2;4;4, hairpin with 3' poly(dT) overhang): binds
